Results reported in patent US20240166695A1 (University of California, published 2024).

How the values were obtained:
TRPV1 = assay: cell-based or functional assay
ARD of TRPV1 = biological target: T1, ARD of TRPV1 (Rattus norvegicus (Rat), UniProt O35433 101-364); assay: SPR steady state, ARD immobilised on CM5 chip, design as analyte, 25 C
T1 construct: Purified from E. coli and immobilised on a CM5 chip by amine coupling; also called TRPV1 ARD; ankyrin repeat-like domain
T1 sequence (O35433 other isoform, or with tags, fused parts or gaps limits assumed): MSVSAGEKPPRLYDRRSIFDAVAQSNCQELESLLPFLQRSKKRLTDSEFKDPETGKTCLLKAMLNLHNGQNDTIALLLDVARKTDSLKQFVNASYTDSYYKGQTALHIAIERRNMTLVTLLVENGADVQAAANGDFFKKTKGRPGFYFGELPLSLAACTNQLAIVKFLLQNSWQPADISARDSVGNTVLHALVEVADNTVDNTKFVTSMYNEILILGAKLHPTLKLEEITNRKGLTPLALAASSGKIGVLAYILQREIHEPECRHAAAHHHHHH
Method: The purified ARD was immobilized on the CM5 SPR sensor chip by an amine-coupling procedure. SPR experiments were conducted on the Biacore T3000 instrument (GE healthcare). The designed proteins were perfused as analytes. Steady-state SPR responses were measured and used to determine the KD values. In all experiments, the analysis was performed at 25° C., with an association time of 120 see at a flow rate of 20 μL/min.

B1: De1 (designed binder)
chain: NGYSSEDKLRIAKRHLLPKQIERNALKKGELFVSEFAILGIILFYTDEAGVRGLEREISKLCRKAVKQLLLDKSTTSSHASGFHLHDYLGVMR
notes: For SPR: expressed from pET-32a in E. coli BL21(DE3), purified on a Ni column and by HPLC; also called Del; designed protein De1
TRPV1
  EC50 of capsaicin activation of TRPV1 co-expressed with De1 (whole-cell patch clamp): 50.9 nM
ARD of TRPV1
  Kd: 26.5 nM
